The experiment deals with GluA2 subunit of native AMPA receptors (nAMPAR) from rat brain (rat (endogenous in rat brain), UniProt P19491). The experiment is described as follows: cryo-EM structure.
GluA2 subunit of native AMPA receptors (nAMPAR) from rat brain, sequence (P19491 22-883): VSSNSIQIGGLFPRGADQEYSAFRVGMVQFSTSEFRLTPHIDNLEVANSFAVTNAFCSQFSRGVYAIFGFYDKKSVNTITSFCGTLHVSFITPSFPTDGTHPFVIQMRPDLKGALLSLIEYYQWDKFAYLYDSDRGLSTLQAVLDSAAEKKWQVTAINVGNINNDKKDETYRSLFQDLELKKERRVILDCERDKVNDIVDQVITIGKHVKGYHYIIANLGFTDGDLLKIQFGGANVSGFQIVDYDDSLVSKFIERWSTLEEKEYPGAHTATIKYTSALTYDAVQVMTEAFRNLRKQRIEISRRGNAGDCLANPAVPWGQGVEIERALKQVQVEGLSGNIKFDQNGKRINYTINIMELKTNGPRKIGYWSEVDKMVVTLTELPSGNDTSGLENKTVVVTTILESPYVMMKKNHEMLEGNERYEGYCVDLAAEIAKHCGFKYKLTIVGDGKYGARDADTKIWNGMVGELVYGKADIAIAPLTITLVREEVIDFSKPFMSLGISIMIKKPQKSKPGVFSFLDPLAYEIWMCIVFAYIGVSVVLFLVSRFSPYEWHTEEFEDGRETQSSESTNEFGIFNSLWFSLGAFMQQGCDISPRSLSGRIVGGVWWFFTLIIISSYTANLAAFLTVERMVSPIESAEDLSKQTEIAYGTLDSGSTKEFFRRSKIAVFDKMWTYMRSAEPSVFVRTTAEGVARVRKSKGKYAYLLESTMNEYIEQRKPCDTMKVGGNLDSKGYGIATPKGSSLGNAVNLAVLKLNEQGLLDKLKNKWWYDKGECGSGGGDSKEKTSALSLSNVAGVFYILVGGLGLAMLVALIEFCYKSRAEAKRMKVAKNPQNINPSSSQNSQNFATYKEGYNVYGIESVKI

B1: 15F1 Fab, anti-GluA2 (Fab, V domains shown)
VH: QAQLKESGPGLVAPSQSLSITCTVSGFSLTNYGVHWVRQPPGKGLEWLGVIWAGGSTNYNSALMSRVSISKDNSKSQVFLKMNSLQTDDTVMYYCAREDYDYDWHFDVWGAGTTVTVSS
VL: EIQMTQTTSSLSASLGDRVTISCRASQDISNYLSWYQQKPDGTVKLLIYYTSRLHSGVPSRFSGSGSGIDYSLTINNLEQEDFATYFCQQGNTLPLTFGAGTKLELK
With B1, the binding result is given as “binds”.

(Values after PMC6701862 (Science (New York, N.Y.), 2019).)
